Experimental data from the supplement of paper PMC9116672.
± gives the standard deviation of the averaged measurements or the uncertainty stated by the source.

What was measured:
[1] = duplex formation enthalpy ΔH (Van't Hoff fit of HRM Tm); higher = less exothermic duplex formation; details: temperature for dG: 50 °C, NaCl: 500 mM (unadjusted)
In short: (§1)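 On a LightCycler96, DNA duplexes were melted from 37 to 97°C at 0.1°C/s in 1× NNE buffer (500 mM NaCl, pH 7.0) containing 1× EvaGreen, at 1–20 μM with four replicates, after 1:1 annealing of phosphodiester or mixed Rp/Sp phosphorothioate strands. Thermodynamic values (enthalpy, entropy and free energy) derive from linear Van't Hoff regression of 1/Tm (Tm: peak of -dF/dT) versus ln(CT/4), are not salt-adjusted, and carry fit standard deviations as errors. Free energy is extrapolated to 50°C.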

[2] = duplex formation free energy ΔG50 (Van't Hoff fit of HRM Tm); higher = less stable duplex; details: temperature for dG: 50 °C, NaCl: 500 mM (unadjusted)
In short: as §1

[3] = duplex melting temperature (HRM, EvaGreen); higher = more stable duplex
In short: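 Complementary DNA strands, either phosphodiester or phosphorothioate (Rp/Sp mixtures), were annealed 1:1 at 25 μM and diluted to 1–20 μM duplex in NNE buffer (500 mM NaCl, pH 7.0) containing 1× EvaGreen. Fluorescence at 470/514 nm was recorded on a LightCycler96 during heating from 37°C to 97°C at 0.1°C/s. The instrument software took the melting temperature as the peak of the negative dF/dT curve. Of four replicates, any without a clear peak were dropped and the remainder averaged.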

[4] = duplex formation entropy ΔS (Van't Hoff fit of HRM Tm); higher = smaller entropy loss on duplex formation; details: temperature for dG: 50 °C, NaCl: 500 mM (unadjusted)
In short: as §1

[5] = backbone: PO-PO (both strands phosphodiester DNA)
[6] = backbone: PS-PO (listed strand fully phosphorothioate, complement phosphodiester)
[7] = backbone: PS-PS (both strands fully phosphorothioate)
[8] = duplex concentration 1 µM, backbone: PO-PO (both strands phosphodiester DNA)
[9] = duplex concentration 1 µM, backbone: PS-PO (listed strand fully phosphorothioate, complement phosphodiester)
[10] = duplex concentration 1 µM, backbone: PS-PS (both strands fully phosphorothioate)
[11] = duplex concentration 2.5 µM, backbone: PO-PO (both strands phosphodiester DNA)
[12] = duplex concentration 2.5 µM, backbone: PS-PO (listed strand fully phosphorothioate, complement phosphodiester)
[13] = duplex concentration 2.5 µM, backbone: PS-PS (both strands fully phosphorothioate)
[14] = duplex concentration 5 µM, backbone: PO-PO (both strands phosphodiester DNA)
[15] = duplex concentration 5 µM, backbone: PS-PO (listed strand fully phosphorothioate, complement phosphodiester)
[16] = duplex concentration 5 µM, backbone: PS-PS (both strands fully phosphorothioate)
[17] = duplex concentration 7.5 µM, backbone: PO-PO (both strands phosphodiester DNA)
[18] = duplex concentration 7.5 µM, backbone: PS-PO (listed strand fully phosphorothioate, complement phosphodiester)
[19] = duplex concentration 7.5 µM, backbone: PS-PS (both strands fully phosphorothioate)
[20] = duplex concentration 10 µM, backbone: PO-PO (both strands phosphodiester DNA)
[21] = duplex concentration 10 µM, backbone: PS-PO (listed strand fully phosphorothioate, complement phosphodiester)
[22] = duplex concentration 10 µM, backbone: PS-PS (both strands fully phosphorothioate)
[23] = duplex concentration 15 µM, backbone: PO-PO (both strands phosphodiester DNA)
[24] = duplex concentration 15 µM, backbone: PS-PO (listed strand fully phosphorothioate, complement phosphodiester)
[25] = duplex concentration 15 µM, backbone: PS-PS (both strands fully phosphorothioate)
[26] = duplex concentration 20 µM, backbone: PO-PO (both strands phosphodiester DNA)
[27] = duplex concentration 20 µM, backbone: PS-PO (listed strand fully phosphorothioate, complement phosphodiester)
[28] = duplex concentration 20 µM, backbone: PS-PS (both strands fully phosphorothioate)

Sequence	duplex formation enthalpy ΔH [1, 5]	duplex formation enthalpy ΔH [1, 6]	duplex formation enthalpy ΔH [1, 7]	duplex formation free energy ΔG50 [2, 5]	duplex formation free energy ΔG50 [2, 6]	duplex formation free energy ΔG50 [2, 7]	duplex melting temperature [3, 8]	duplex melting temperature [3, 9]	duplex melting temperature [3, 10]	duplex melting temperature [3, 11]	duplex melting temperature [3, 12]	duplex melting temperature [3, 13]	duplex melting temperature [3, 14]	duplex melting temperature [3, 15]	duplex melting temperature [3, 16]	duplex melting temperature [3, 17]	duplex melting temperature [3, 18]	duplex melting temperature [3, 19]	duplex melting temperature [3, 20]	duplex melting temperature [3, 21]	duplex melting temperature [3, 22]	duplex melting temperature [3, 23]	duplex melting temperature [3, 24]	duplex melting temperature [3, 25]	duplex melting temperature [3, 26]	duplex melting temperature [3, 27]	duplex melting temperature [3, 28]	duplex formation entropy ΔS [4, 5]	duplex formation entropy ΔS [4, 6]	duplex formation entropy ΔS [4, 7]
GCTGAACTAACCACCA	-77.7 ± 3.3 kcal/mol	-73 ± 1.3 kcal/mol	-69.9 ± 2.3 kcal/mol	-12.7 ± 0.18 kcal/mol	-10.92 ± 0.045 kcal/mol	-9.252 ± 0.03 kcal/mol	62.4 ± 1.2 °C	55.12 ± 0.072 °C	47.5 ± 0.78 °C	65.29 ± 0.31 °C	57.81 ± 0.12 °C	50.39 ± 0.32 °C	67.03 ± 0.25 °C	60.12 ± 0.057 °C	52.54 ± 0.26 °C	68.36 ± 0.31 °C	61.33 ± 0.085 °C	53.74 ± 0.18 °C	69.23 ± 0.2 °C	62.13 ± 0.097 °C	54.62 ± 0.096 °C	70.53 ± 0.31 °C	63.33 ± 0.14 °C	55.67 ± 0.093 °C	71.61 ± 0.45 °C	64.15 ± 0.058 °C	56.62 ± 0.25 °C	-201 ± 9.6 cal/mol/K	-192 ± 3.9 cal/mol/K	-188 ± 7 cal/mol/K
ACTGTATCGCCCTA	-70.4 ± 6 kcal/mol	-56.7 ± 6.8 kcal/mol	-40.3 ± 2.8 kcal/mol	-12 ± 0.31 kcal/mol	-10.2 ± 0.24 kcal/mol	-8.829 ± 0.042 kcal/mol			43.6 ± 0.65 °C	64.04 ± 0.18 °C		47.26 ± 0.29 °C	65.3 ± 0.12 °C	57.4 ± 0.95 °C	50.2 ± 0.33 °C	66.7 ± 0.24 °C	60.1 ± 0.84 °C	51.8 ± 0.45 °C	68.35 ± 0.2 °C	61.56 ± 0.48 °C	54.55 ± 0.45 °C	69.55 ± 0.22 °C	62.93 ± 0.27 °C	57.15 ± 0.42 °C	70.51 ± 0.2 °C	63.73 ± 0.26 °C	59.2 ± 0.59 °C	-181 ± 18 cal/mol/K	-144 ± 20 cal/mol/K	-97.5 ± 8.7 cal/mol/K
GTGAGCAGAAGGGGTT	-71 ± 3.3 kcal/mol	-71.4 ± 2 kcal/mol	-66.3 ± 3 kcal/mol	-12.7 ± 0.19 kcal/mol	-11.81 ± 0.093 kcal/mol	-10.06 ± 0.071 kcal/mol	64.4 ± 0.57 °C	59.41 ± 0.21 °C	51.01 ± 0.18 °C	66.59 ± 0.48 °C	62.57 ± 0.13 °C	54.75 ± 0.25 °C	68.752 ± 0.066 °C	64.68 ± 0.15 °C	56.88 ± 0.17 °C	70.17 ± 0.27 °C	66 ± 0.37 °C	58.06 ± 0.31 °C	71.2 ± 0.18 °C	66.75 ± 0.18 °C	58.956 ± 0.043 °C	72.73 ± 0.15 °C	68.05 ± 0.21 °C	60.17 ± 0.3 °C	73.73 ± 0.092 °C	69.05 ± 0.47 °C	60.93 ± 0.33 °C	-180 ± 9.6 cal/mol/K	-184 ± 6 cal/mol/K	-174 ± 8.9 cal/mol/K
AGCACGGTGGTACAACA	-71.3 ± 2.6 kcal/mol	-78.6 ± 2 kcal/mol	-67.6 ± 3.5 kcal/mol	-12.8 ± 0.17 kcal/mol	-12.23 ± 0.093 kcal/mol	-9.892 ± 0.075 kcal/mol		60.27 ± 0.38 °C	50.09 ± 0.18 °C	67.58 ± 0.38 °C	63.2 ± 0.2 °C	53.82 ± 0.069 °C	69.83 ± 0.28 °C	65.28 ± 0.1 °C	56.17 ± 0.085 °C	71.17 ± 0.15 °C	66.25 ± 0.082 °C	57.1 ± 0.12 °C	72.2 ± 0.18 °C	67.06 ± 0.081 °C	57.92 ± 0.08 °C	73.4 ± 0.13 °C	68.18 ± 0.11 °C	59.07 ± 0.11 °C	74.39 ± 0.17 °C	69.05 ± 0.15 °C	59.74 ± 0.13 °C	-181 ± 7.5 cal/mol/K	-205 ± 5.8 cal/mol/K	-179 ± 11 cal/mol/K
ATAACTTACTCTCGCCT	-77.8 ± 5.4 kcal/mol	-71.9 ± 1.4 kcal/mol	-64.9 ± 2.1 kcal/mol	-12.7 ± 0.29 kcal/mol	-10.65 ± 0.042 kcal/mol	-9.287 ± 0.031 kcal/mol	63.6 ± 0.52 °C	53.9 °C	47.36 ± 0.27 °C	65.26 ± 0.45 °C	56.75 ± 0.23 °C	50.73 ± 0.41 °C	67.07 ± 0.61 °C	59 ± 0.16 °C	53.03 ± 0.18 °C	68.39 ± 0.58 °C	60.21 ± 0.15 °C	54.3 ± 0.082 °C	69.34 ± 0.46 °C	61.01 ± 0.18 °C	55.17 ± 0.085 °C	70.85 ± 0.28 °C	62.23 ± 0.12 °C	56.32 ± 0.24 °C	72.01 ± 0.25 °C	63.109 ± 0.04 °C	57.138 ± 0.039 °C	-201 ± 16 cal/mol/K	-190 ± 4 cal/mol/K	-172 ± 6.5 cal/mol/K
CGGGATTTCTGGCATCATTGTCCT	-126 ± 7 kcal/mol	-141 ± 6.2 kcal/mol	-108 ± 3.9 kcal/mol	-19 ± 0.58 kcal/mol	-17.1 ± 0.38 kcal/mol	-13 ± 0.16 kcal/mol	76 ± 0.48 °C	67.9 ± 0.64 °C	59.9 ± 0.76 °C	77.25 ± 0.45 °C	69.22 ± 0.5 °C	61.87 ± 0.59 °C	78.194 ± 0.017 °C	70.21 ± 0.48 °C	63.36 ± 0.43 °C	79.16 ± 0.14 °C	70.82 ± 0.46 °C	64.38 ± 0.25 °C	79.99 ± 0.12 °C	71.58 ± 0.27 °C	65.03 ± 0.12 °C	80.96 ± 0.077 °C	72.42 ± 0.15 °C	65.67 ± 0.24 °C	81.6 ± 0.082 °C	72.86 ± 0.12 °C	66.1 ± 0.11 °C	-332 ± 20 cal/mol/K	-384 ± 18 cal/mol/K	-294 ± 11 cal/mol/K
TTTGGGTTAGTAAGAAGGCAGCAGTTGGGC	-194 ± 7.9 kcal/mol	-163 ± 7.3 kcal/mol	-138 ± 2.7 kcal/mol	-26.6 ± 0.73 kcal/mol	-20.7 ± 0.54 kcal/mol	-15.88 ± 0.14 kcal/mol	80.77 ± 0.16 °C	73.49 ± 0.58 °C	64.9 ± 0.6 °C	81.98 ± 0.11 °C	74.54 ± 0.53 °C	66.58 ± 0.4 °C	82.782 ± 0.065 °C	75.49 ± 0.43 °C	67.7 ± 0.32 °C	83.39 ± 0.22 °C	76.34 ± 0.31 °C	68.34 ± 0.25 °C	83.787 ± 0.08 °C	76.74 ± 0.24 °C	68.92 ± 0.12 °C	84.24 ± 0.16 °C	77.38 ± 0.2 °C	69.54 ± 0.097 °C	85 °C	77.939 ± 0.056 °C	70.01 ± 0.096 °C	-517 ± 22 cal/mol/K	-439 ± 21 cal/mol/K	-377 ± 7.9 cal/mol/K
AGACATCCCATACGAGCATCCA	-112 ± 7.7 kcal/mol	-124 ± 4.9 kcal/mol	-90.8 ± 2 kcal/mol	-17.5 ± 0.61 kcal/mol	-16.1 ± 0.3 kcal/mol	-12.13 ± 0.08 kcal/mol	74.67 ± 0.5 °C	67.6 ± 0.69 °C	58.4 ± 0.91 °C	75.64 ± 0.58 °C	69.1 ± 0.53 °C	60.9 ± 0.71 °C	77.03 ± 0.46 °C	70.2 ± 0.62 °C	62.6 ± 0.4 °C	78.03 ± 0.27 °C	71.19 ± 0.51 °C	63.56 ± 0.19 °C	79.049 ± 0.057 °C	71.87 ± 0.23 °C	64.391 ± 0.055 °C	79.985 ± 0.077 °C	72.68 ± 0.15 °C	65.3 ± 0.086 °C	80.728 ± 0.069 °C	73.314 ± 0.051 °C	65.89 ± 0.11 °C	-292 ± 22 cal/mol/K	-333 ± 14 cal/mol/K	-243 ± 6 cal/mol/K
TACTTCCAACGTAGG	-62.5 ± 1.4 kcal/mol	-61.3 ± 3 kcal/mol		-10.98 ± 0.06 kcal/mol	-9.629 ± 0.064 kcal/mol			49.1 °C	45.032 ± 0.023 °C	59.72 ± 0.33 °C	51.72 ± 0.075 °C	45.59 ± 0.28 °C	62 ± 0.17 °C	55.02 ± 0.098 °C	47.2 ± 0.46 °C	63.52 ± 0.17 °C	56.5 ± 0.21 °C	48.26 ± 0.23 °C	64.46 ± 0.077 °C	57.42 ± 0.17 °C	49.7 ± 0.78 °C	66.07 ± 0.095 °C	58.63 ± 0.099 °C	50.85 ± 0.34 °C	67.22 ± 0.12 °C	59.46 ± 0.12 °C	51.9 ± 0.73 °C	-159 ± 4.2 cal/mol/K	-160 ± 9.1 cal/mol/K	
